B1: CLCN6 (parent)
chain: TGLVGLFVDFFVRLFTQLKFGVVQ
B2: FAM46C (parent)
chain: VRSRLEEAGIKVHDVRLNGSAAGH

Variants of: B1
Experiment: protein stability index of a GFP-peptide fusion (GPS, HEK-293T) (PSI 1-6); higher = more stable
Conditions: c terminus: a fixed tail appended
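Further: lentivirally expressed fusions sorted by FACS into six bins by GFP to DsRed ratio, PSI derived from sequencing read proportions per bin multiplied by bin number.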

Protein stability index: each site, then its substitutions
F20: S 3.86, R 4.55, H 2.58, A 3.03, D 4.13
K19: F 1.89, Q 2.89, L 2.56, G 1.98
G21: M 3.39, I 2.94, F 3.79, Y 3.39
V23: M 2.68, K 2.45, W 3.3, H 1.81, R 3.09, S 2.73, G 2.18, C 2.78, F 2.98
Q17: P 2.08, Y 2.06, S 2.81, A 2.38, G 1.77
L18: Y 3.06, W 1.66, A 1.97
V22: N 1.25, K 2.26, G 1.72, Y 2.36, Q 2.48, W 2.72, I 2.84
R13: I 2.59, Q 1.81, P 3.13
Q24: V 1.71, F 1.18
L14: G 1.68, Q 1.55, W 2.8, A 1.61, D 4.06
L3: A 2.15, S 2.05, N 2.11, F 2.71, W 3.37, I 2.36, V 2.42
F7: L 2.77, E 4.32, T 2.35
G2: I 2.36, M 2.66, K 2.53, Q 1.73, C 2.77, S 1.96
D9: S 2.15, R 3.51, H 2.61
F15: H 2.71, Y 2.73, K 2.12, I 3.25, M 1.77
G5: C 2.42, E 1.78, D 2.47, A 2.19, P 2.71
F10: S 1.8, W 2.7, I 2.21, Q 1.85, R 2.82
T1: W 1.73, V 1.7
F11: K 3.06, V 2.65, I 2.29
L6: G 3.36, Q 3.53
V12: P 1.78, F 2.1, A 2.11, L 1.95
V4: G 1.66, Q 2.79, D 4.33, K 2.16
T16: I 2.41, P 1.8, W 3.32, Y 1.98, C 1.99, N 3.55

Variants of: B2
Experiment: as above
Conditions: c terminus: a fixed tail appended

Protein stability index, by site and new letter:
R4: E 4.73, P 4.24, A 1.2, Y 1.81, T 3.71, I 2.53, W 2.33, K 2.27, C 2.72, G 3.25, F 1.89, N 2.47
I10: M 3.78, P 4.56, V 4.24, S 3.9, R 3.41, C 2.89, Y 1.75, A 3.63
L5: C 3.68, R 4, V 3.7, N 4.03, D 4.35, Y 3.04, T 4.59, G 4.21, K 3.97
G9: V 2.88, D 3.89, S 3.9, N 3.91, M 3.15, Y 2.51, H 4.57, A 2.76, P 3.67, R 3.88
H24: E 3.66, A 3.06, Q 2.67, S 3.07, P 2.76, D 2.7, I 2.01
E6: Y 2.1, Q 3.22, D 3.09, R 2.59, G 3.06, P 3.71, F 2.46, T 2.44, M 1.71, N 3.54
A22: M 2.66, Q 2.1, P 2.37, S 2.17, Y 1.94, W 2.68, N 2.25, E 2.12, C 1.65, G 2.86, I 2.74
R16: H 2.54, F 2.25, K 2.49, Y 2.64, S 2.68, D 4.37, W 1.66, E 4.63
G23: F 2.94, K 2.25, E 2.3, D 2.44, Y 2.18, S 2.6, R 2.38, Q 1.2, L 1.64, T 3.09, N 2.55, C 1.64, I 1.6
A21: Y 1.56, R 2.83, C 1.73, P 1.8, W 1.56, Q 1.72, G 3.12, S 2.32, K 4.25, T 2.51
V1: N 3.5, S 4.18, P 4.38, M 2.6, K 3.62, H 4.02, F 2.56, R 4.11, Y 3.57, A 3.16, D 4.33, Q 4.59, E 3.44
G19: A 2.19, D 2.26, F 2.44, T 1.74, R 2.22, H 2.54, M 1.83, V 1.79, P 1.55
L17: K 4.53, E 4.2, A 3.15, Q 4.23, F 2.47, I 2.53, V 2.67, N 3.75
E7: H 2.37, G 3.06, W 1.99, F 2.49, K 2.45, I 2.48, T 2.51
R2: P 3.89, D 4.25, S 4.37, I 2.15, A 3.04, F 2.04, T 3.82, C 2.3, E 3.85, G 3.36, Q 2.58, L 2.34
K11: E 2.89, A 3.94, F 1.51, W 2.69, N 3.82, T 4.08, M 2.01, Q 2.74, V 2.36
D14: L 2.43, W 1.62, T 2.8, P 4.54, S 2.64, M 1.79, I 1.29, E 2.4
H13: A 2.98, W 2.02, F 1.74, E 4.06, N 2.74, M 1.53, I 1.03, G 4.18, T 1.86, P 4.08, Q 2.42, R 2.32
V15: A 4.24, H 4.22, F 3.57, I 2.06, P 3.65, L 2.76, E 3.27, S 3.35, D 5.04
S3: N 1.77, K 1.37, P 4.33, G 2.91, H 3.76, Y 1.53, M 1.53
S20: T 1.56, N 3.2, K 2.28, P 1.95, A 2.61, F 1.35, H 2.16, V 2.61, Q 2.63
V12: M 3.25, P 4.06, Y 3.33, K 4.25, L 2.56, S 3.93, E 4.73, H 3.6, F 3.04, N 4.04, R 4.44, Q 4.06, I 2.67, T 2.29
N18: V 2.7, C 2.64, E 1.53, T 1.87, Q 1.96, S 4.1, D 2.81, L 1.16, W 2.13, P 3.12
A8: H 3.12, M 2.58, R 1.96, P 3.88, D 4.49, W 2.19, E 4.46
